According to patent publication US20200199241A1 (Chugai, published 2020):
Residue numbers refer to the chain shown, from its start.

B1: IgG1-F182 (antibody)
heavy: QVQLQESGPGLVKPSETLSLTCAVSGHSISHDHAWSWVRQPPGEGLEWIGFISYSGITNYNPSLQGRVTISRDNSKNTLYLQMNSLRAEDTAVYYCARSLARTTAMDYWGEGTLVTVSSASTKGPSVFPLAPSSKSTSGGTAALGCLVKDYFPEPVTVSWNSGALTSGVHTFPAVLQSSGLYSLSSVVTVPSSSLGTQTYICNVNHKPSNTKVDKKVEPKSCDKTHTCPPCPAPELLGGPSVFLFPPKPKDTLMISRTAEVTCVVVDVSHEDPEVKFNWYVDGVEVHNAKTKPREEQYNSTYRVVSVLTVLHQDWLNGKEYKCKVSNKALPAPIEKTISKAKGQPREPQVYTLPPSRDELTKNQVSLTCLVKGFYPSDIAVEWESNGQPENNYKTTPPVLDSDGSFFLYSKLTVDKSRWQQGNVFSCSVLHEALHWHYTQKSLSLSP
light: not shown
notes: EU numbering; copies: 2 + 2
B2: IgG1-F216 (antibody)
heavy: B1 heavy with M254Y, A259P, T309Y, L430M, W436Y
light: not shown
notes: EU numbering; copies: 2 + 2
B3: IgG1-F214 (antibody)
heavy: B1 heavy with M254Y, A259P, T309V, L430M, W436Y
light: not shown
notes: EU numbering; copies: 2 + 2
B4: IgG1-F227 (antibody)
heavy: B1 heavy with M254Y, A259P, N288E, L430M, W436Y
light: not shown
notes: EU numbering; copies: 2 + 2
B5: IgG1-F205 (antibody)
heavy: B1 heavy with M254Y, A259P, T309H, L430M, W436Y
light: not shown
notes: EU numbering; copies: 2 + 2
B6: IgG1-F206 (antibody)
heavy: B1 heavy with M254Y, A259P, T309I, L430M, W436Y
light: not shown
notes: EU numbering; copies: 2 + 2
B7: IgG1-F222 (antibody)
heavy: B1 heavy with M254Y, A259P, N317H, L430M, W436Y
light: not shown
notes: EU numbering; copies: 2 + 2
B8: IgG1-F219 (antibody)
heavy: B1 heavy with M254Y, A259P, T291H, L430M, W436Y
light: not shown
notes: EU numbering; copies: 2 + 2
B9: IgG1-F203 (antibody)
heavy: B1 heavy with M254Y, A259P, T309F, L430M, W436Y
light: not shown
notes: EU numbering; copies: 2 + 2
B10: IgG1-F198 (antibody)
heavy: B1 heavy with A259V, T309Q, W436Y
light: not shown
notes: EU numbering; copies: 2 + 2
B11: IgG1-F218 (antibody)
heavy: B1 heavy with M254Y, A259P, G387H, L430M, W436Y
light: not shown
notes: EU numbering; copies: 2 + 2
B12: IgG1-F189 (antibody)
heavy: B1 heavy with M254Y, A259P, T309A, L430M, W436Y
light: not shown
notes: EU numbering; copies: 2 + 2
B13: IgG1-F204 (antibody)
heavy: B1 heavy with M254Y, A259P, T309G, L430M, W436Y
light: not shown
notes: EU numbering; copies: 2 + 2
B14: IgG1-F226 (antibody)
heavy: B1 heavy with M254Y, A259P, L316K, L430M, W436Y
light: not shown
notes: EU numbering; copies: 2 + 2
B15: IgG1-F236 (antibody)
heavy: B1 heavy with K250I, A259P, W436Y
light: not shown
notes: EU numbering; copies: 2 + 2
B16: IgG1-F217 (antibody)
heavy: B1 heavy with M254Y, A259P, K336L, L430M, W436Y
light: not shown
notes: EU numbering; copies: 2 + 2
B17: IgG1-F221 (antibody)
heavy: B1 heavy with M254Y, A259P, D314H, L430M, W436Y
light: not shown
notes: EU numbering; copies: 2 + 2
B18: IgG1-F184 (antibody)
heavy: B1 heavy with A259V
light: not shown
notes: EU numbering; copies: 2 + 2
B19: IgG1-F209 (antibody)
heavy: B1 heavy with M254Y, A259P, T309M, L430M, W436Y
light: not shown
notes: EU numbering; copies: 2 + 2
B20: IgG1-F223 (antibody)
heavy: B1 heavy with M254Y, A259P, K362H, L430M, W436Y
light: not shown
notes: EU numbering; copies: 2 + 2
B21: IgG1-F193 (antibody)
heavy: B1 heavy with A259T, T309A, W436Y
light: not shown
notes: EU numbering; copies: 2 + 2
B22: IgG1-F196 (antibody)
heavy: B1 heavy with T309Q, W436Y
light: not shown
notes: EU numbering; copies: 2 + 2
B23: IgG1-F215 (antibody)
heavy: B1 heavy with M254Y, A259P, T309W, L430M, W436Y
light: not shown
notes: EU numbering; copies: 2 + 2
B24: IgG1-F208 (antibody)
heavy: B1 heavy with M254Y, A259P, T309L, L430M, W436Y
light: not shown
notes: EU numbering; copies: 2 + 2
B25: IgG1-F229 (antibody)
heavy: B1 heavy with M254Y, R257E, A259P, L430M, W436Y
light: not shown
notes: EU numbering; copies: 2 + 2
B26: IgG1-F211 (antibody)
heavy: B1 heavy with M254Y, A259P, T309P, L430M, W436Y
light: not shown
notes: EU numbering; copies: 2 + 2
B27: IgG1-F194 (antibody)
heavy: B1 heavy with A259V, T309A, W436Y
light: not shown
notes: EU numbering; copies: 2 + 2
B28: IgG1-F228 (antibody)
heavy: B1 heavy with M254Y, A259P, L311E, L430M, W436Y
light: not shown
notes: EU numbering; copies: 2 + 2
B29: IgG1-F195 (antibody)
heavy: B1 heavy with A259L, T309Q, W436Y
light: not shown
notes: EU numbering; copies: 2 + 2
B30: IgG1-F237 (antibody)
heavy: B1 heavy with M254Y, A259P, L430A, W436Y
light: not shown
notes: EU numbering; copies: 2 + 2
B31: IgG1-F230 (antibody)
heavy: B1 heavy with M254Y, A259P, P389E, L430M, W436Y
light: not shown
notes: EU numbering; copies: 2 + 2
B32: IgG1-F225 (antibody)
heavy: B1 heavy with M254Y, A259P, L316R, L430M, W436Y
light: not shown
notes: EU numbering; copies: 2 + 2
B33: IgG1-F183 (antibody)
heavy: B1 heavy with A259T
light: not shown
notes: EU numbering; copies: 2 + 2
B34: IgG1-F212 (antibody)
heavy: B1 heavy with M254Y, A259P, T309R, L430M, W436Y
light: not shown
notes: EU numbering; copies: 2 + 2
B35: IgG1-F210 (antibody)
heavy: B1 heavy with M254Y, A259P, T309N, L430M, W436Y
light: not shown
notes: EU numbering; copies: 2 + 2
B36: IgG1-F191 (antibody)
heavy: B1 heavy with A259L, T309A, W436Y
light: not shown
notes: EU numbering; copies: 2 + 2
B37: IgG1-F192 (antibody)
heavy: B1 heavy with T309A, W436Y
light: not shown
notes: EU numbering; copies: 2 + 2
B38: IgG1-F238 (antibody)
heavy: B1 heavy with M254Y, A259P, L430D, W436Y
light: not shown
notes: EU numbering; copies: 2 + 2
B39: IgG1-F190 (antibody)
heavy: B1 heavy with M254Y, A259P, T309Q, L430M, W436Y
light: not shown
notes: EU numbering; copies: 2 + 2
B40: IgG1-F213 (antibody)
heavy: B1 heavy with M254Y, A259P, T309S, L430M, W436Y
light: not shown
notes: EU numbering; copies: 2 + 2
B41: IgG1-F220 (antibody)
heavy: B1 heavy with M254Y, A259P, Q313H, L430M, W436Y
light: not shown
notes: EU numbering; copies: 2 + 2
B42: IgG1-F201 (antibody)
heavy: B1 heavy with M254Y, A259P, T309D, L430M, W436Y
light: not shown
notes: EU numbering; copies: 2 + 2

biological target: T1, human FcRn (soluble human FcRn complexed with β2-microglobulin) (human, UniProt P61769 21-119, limits assumed); test: SPR, pH 7.0;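 note: antibodies captured on a Protein L sensor chip with human FcRn injected as analyte, KD calculated from fitted association and dissociation rate constants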
T1 construct: also called hFcRn
T1 sequence (chain, as listed by the source limits assumed, chain 1 of 2): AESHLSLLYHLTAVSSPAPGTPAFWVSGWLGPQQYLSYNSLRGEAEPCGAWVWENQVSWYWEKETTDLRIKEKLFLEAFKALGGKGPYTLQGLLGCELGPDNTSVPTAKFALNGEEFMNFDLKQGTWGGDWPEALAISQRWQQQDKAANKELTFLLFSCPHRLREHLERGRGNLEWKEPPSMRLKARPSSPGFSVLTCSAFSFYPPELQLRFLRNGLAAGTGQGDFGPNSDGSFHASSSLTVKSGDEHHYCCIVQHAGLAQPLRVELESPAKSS
T1 sequence (P61769 21-119 limits assumed, chain 2 of 2): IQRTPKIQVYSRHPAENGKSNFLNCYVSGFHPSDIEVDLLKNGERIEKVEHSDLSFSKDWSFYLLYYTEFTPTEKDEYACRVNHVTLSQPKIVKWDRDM

Point of comparison: B1, Kd 66 nM. Against it:
- B2 — 3.5-fold higher, 230 nM
- B3 — 2.6-fold higher, 170 nM
- B4 — 1.8-fold higher, 120 nM
- B5 — 3-fold higher, 200 nM
- B6 — 3.5-fold higher, 230 nM
- B7 — 5.2-fold higher, 340 nM
- B8 — 3.8-fold higher, 250 nM
- B9 — 3.6-fold higher, 240 nM
- B10 — within 1.5-fold, 48 nM
- B11 — 3.9-fold higher, 260 nM
- B12 — 2.9-fold higher, 190 nM
- B13 — 3.2-fold higher, 210 nM
- B14 — 8.2-fold higher, 540 nM
- B15 — 13-fold higher, 890 nM
- B16 — 3.5-fold higher, 230 nM
- B17 — 4.7-fold higher, 310 nM
- B18 — 4.1-fold higher, 270 nM
- B19 — 2-fold higher, 130 nM
- B20 — 4.1-fold higher, 270 nM
- B21 — within 1.5-fold, 85 nM
- B22 — 1.9-fold lower, 35 nM
- B23 — within 1.5-fold, 96 nM
- B24 — 5.9-fold higher, 390 nM
- B25 — 7.7-fold higher, 510 nM
- B26 — 3.6-fold higher, 240 nM
- B27 — 1.8-fold higher, 120 nM
- B28 — 3.5-fold higher, 230 nM
- B29 — within 1.5-fold, 56 nM
- B30 — 3.5-fold higher, 230 nM
- B31 — 3.8-fold higher, 250 nM
- B32 — 23-fold higher, 1500 nM
- B33 — 3.3-fold higher, 220 nM
- B34 — 10-fold higher, 680 nM
- B35 — 4.4-fold higher, 290 nM
- B36 — 2.4-fold higher, 160 nM
- B37 — 1.7-fold higher, 110 nM
- B38 — 11-fold higher, 740 nM
- B39 — 1.7-fold higher, 110 nM
- B40 — 3.5-fold higher, 230 nM
- B41 — 3.8-fold higher, 250 nM
- B42 — 3.2-fold higher, 210 nM
